Experimental data published in the supplement of paper PMC9170038.

System: K4 kissing-loop RNA reporter
Test: apparent KD of K4 kissing-loop reporter; higher = weaker reporter binding
Conditions: Eterna round: R107
Method: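 RNA-MaP round R107: designed RNA switches with theophylline, tryptophan, arginine or FMN aptamers are transcribed on-chip within common flanks. They are titrated with a labelled K4 kissing-loop RNA reporter in RNA-MaP buffer (100 mM Tris pH 7.5, 80 mM KCl, 4 mM MgCl2), without ligand or with the indicated ligand. Median apparent KD per design.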

[1] = input ligand: theophylline 20 uM
[2] = input ligand: tryptophan 2.4 mM
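Further: bound reporter read as fluorescence of individual clusters on recovered sequencing chips by microscopy, with normalized cluster intensities fitted with a binding model.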

| Sequence | apparent KD of K4 kissing-loop reporter (input ligand: FMN 200 uM) [nM] | apparent KD of K4 kissing-loop reporter (input ligand: arginine 13.2 mM) [nM] | apparent KD of K4 kissing-loop reporter (input ligand: none) [nM] | apparent KD of K4 kissing-loop reporter [1] [nM] | apparent KD of K4 kissing-loop reporter [2] [nM] |
| --- | --- | --- | --- | --- | --- |
| ACUUAGAAUGAAGGAUAUUGGUUACGAGGGCUAACCAAAACGGAUCACUUGUCCAGUGAUGUUGUCCAAGAAGGUCACGUUAAAC [theeternabot_exclusion_KL_FMN_B_44] | 776 | 665 | 868 | 492 | 576 |
| ACUUAUUGUGUCGAUACCAGCAGGUGACGACGCCUCAUGGCUGACGAGUGAUGUUCGACUUGCCCUUGGCAGCGACAUACGCCGG [theeternabot_sameState_KL_Theo_B_12] | 354 | 228 | 356 | 365 | 310 |
| ACUUGCACAAAGUCGUCAACCGGUGAAUCAAAGGAUAUUAAUUCACUAAGAAGGUUGAGCCGAGUGAUGUUCGACUGUAAGUCCC [theeternabot_exclusion_KL_FMN_A_34] | 415 | 382 | 551 | 506 | 348 |
| AGAACUGUCUUGGAUACCAGUGAUGUUGGUAUCGAUGUGUGAGUGCAAAGCGUCCCACAUUGCCCUUGGCAGCUAAGACUGUUCA [Omei KL Theo B Exc A v3] | 158 | 134 | 148 | 179 | 144 |
| AGAAGAUAUCGUGAUACCAGACCGCGGAGAGGCCGGAAGAGGGUAGUGAUGUUGCAUGCAGUCCCUUGGCAGCACUGACAGUAUU [theeternabot_sameState_KL_Theo_B_40] | 754 | 287 | 694 | 539 | 601 |
| AGACUACCACACUGUCAAUAGACAGUGGACUAGGAUAUGCUGAUAAGCAGAAGGAGUGAUGUUCCUAGGUAGUCAAUAAAAUAAU [FmnAX 13 G28] | 357 | 301 | 378 | 532 | 396 |
| AGACUACCACACUGUCAAUAGACAGUGUACUAGGAUAUGCUGAUAAGCAGAAGGAGUGAUGUUCCUUGGUAGUCAAUAAAAUAAU [FmnAX 13 U28+U67] | 357 | 237 | 258 | 268 | 238 |
| AGACUACCUACACUGUCAAUAGACAGUGACUAGGAUAUGCUGAUAAGCAGAAGGAGUGAUGUUCCUGGUAGUCAAAUAAAAUAAU [FmnAX 12 #SwitchBubble #StaticStem #K4Early] | 498 | 295 | 311 | 323 | 278 |
| AGACUACUGAUAGGAUAUAACAUACUACUCGUAUACCGAAAGGUAUACGAGACCCUUCUAGUGAUGUUAGAAGGGUCGGUAGUCA [Omei KL FMN B Exc B v8] | 87.5 | 70.1 | 68.1 | 68.6 | 74.7 |
| AGACUACUGAUAGGAUAUAACAUACUAGCUCGUAUACCAAAGGUAUACGAGCACCUUCUAGUGAUGUUAGAAGGGUCGGUAGUCA [Omei KL FMN B Exc B v3] | 301 | 104 | 108 | 109 | 117 |
| AGACUACUGAUAGGAUAUAACAUCCUAGUCGUAUACCGAAAGGUAUACGAUAUCCUUCUAGUGAUGUUAGAAGGGUCGGUAGUCA [Omei KL FMN B Exc B v10] | 113 | 85.5 | 103 | 88.3 | 98.4 |
| AGAGAUAUAUGAGGAUAUGGGUUAGUUAAUGAGUUAGUUUUAGUGUUGUUUGGUUAGUGAUGUUAUUUAGAAGGCGUGAGUGAUG [cqqbmullin] | 98.4 | 60.8 | 70 | 112 | 66.2 |
| AGAGUCACAUAAGGAUAUCCCUUGACGGGAACCAAGUGAUGUUUGGUUAGACGACCUCUUAUCACGGGAGAAGGUAUAUUUGUAU [theeternabot_sameState_KL_FMN_B_27] | 724 | 580 | 889 | 676 | 612 |
| AGAGUUAAUUAGUCUUUUUUAACAUUAAGUCAGGAUAUCGUAUAUUCGAGAAGGGACACAUGCUAGUGAUGUUAGCUAUUUCUCA [JR_ExcFMNA_Sub018] | 50.2 | 90.5 | 56.5 | 86.7 | 47.2 |
| AGAGUUAAUUAGUCUUUUUUUACAUUAAGUCAGGAUAUCGUAUAUUCGAGAAGGGACACAUGCUAGUGAUGUUAGCUAUUUCUCA [JR_Nu_ExcFMNA_Sub019] | 39.7 | 79.6 | 47.5 | 71.7 | 44.4 |
| AGAGUUAUAUGAGGAUAUGAGAUAGUUAAUGAGUGAGUUAUAGUGUAGUUUGGUUAGUGAUGUUAUUUAGAAGGCGUGAGUGAUG [reefmullin] | 133 | 76.5 | 115 | 100 | 83.1 |

| Sequence | apparent KD of K4 kissing-loop reporter (input ligand: FMN 200 uM) [nM] | apparent KD of K4 kissing-loop reporter (input ligand: arginine 13.2 mM) [nM] | apparent KD of K4 kissing-loop reporter (input ligand: none) [nM] | apparent KD of K4 kissing-loop reporter [1] [nM] | apparent KD of K4 kissing-loop reporter [2] [nM] |
| --- | --- | --- | --- | --- | --- |
| AGAGUUAUGCGAGGAUAUGCAGUUAGUACUCAAAGAGUACUAACAGCAGAGUGAUGUUCUGUGAAAGCAGAAGGUGCAUAACUCA [Omei KL FMN B SS B v7] | 153 | 630 | 1120 | 641 | 671 |
| AGAGUUAUGCGAGGAUAUGCAGUUAGUACUCAAAGAGUACUAACGCAGAGUGAUGUUCUGUGAAACGCAGAAGGUGCAUAACUCA [Omei KL FMN B SS B v4] | 161 | 509 | 549 | 480 | 485 |
| AGAGUUGACGAAAAGUCAACUCUACGAGAAGGAGCGCACGAAAGUGCAGGUAGGUCGCUCAGUCCAGUGAUGUUGGAACAUAAAA [#OpenEnded 8] | 59.7 | 101 | 68.8 | 84.1 | 59.2 |
| AGAGUUUUAUGAGGAUAUGAGAUAGUUAAUGAGUGAGUUAUAGUGUAGUUUGGUUAGUGAUGUUAUUUAGAAGGCGUGAGUGAUG [zzfzmullin] | 205 | 92.9 | 143 | 101 | 108 |
| AGAUACUUUAUCGCUAGAGGCAUUGCAGAUACCAGCCUAUCUAGAGGCCCUUGGCAGCUGGAGUGAUGUUUCGGCUUAGCUAAAG [theeternabot_exclusion_KL_Theo_A_32] | 402 | 317 | 323 | 348 | 393 |
| AGAUCUAAGCUGAGUUAGUCACCAUAAAGCAAGGAUAUUCCACGAAGAAGAAGGUGCAUCAUCCAUAGUGAUGUUAUGGCACGGG [theeternabot_sameState_KL_FMN_A_7] | 687 | 548 | 807 | 672 | 574 |
| AGAUGACACCGAGGAUAUCCUAAUAUGGGUGAUGUUAGCGAUGUUGAAGGUGUAGUGAUGUUAUGCGGAGAAGGCGGUGUUGUUU [BDazzled - #21 - Exc. FMN B] | 104 | 103 | 216 | 139 | 132 |
| AGAUGUCCCUGGGAUACCAGUCGGAGUCUCAGAGCUCGGAGUGAUGUUCUGGGAUGUUUCGGCCCUUGGCAGCUCUGGGACUCCC [#2 Exclusion - Theophylline B Attempt #25 (HarryS)] | 603 | 722 | 847 | 708 | 909 |
| AGAUGUCUCUGGGAUACCAGUCGGAGUCUCAGGGCUCGGAGUGAUGUUCUGGGAUGUUUCGGCCCUUGGCAGCCCUGGGACUCCC [#2 Exclusion - Theophylline B Attempt #27 (HarryS)] | 724 | 514 | 649 | 740 | 542 |
| AGCAGUGAUGUUGCAUUUAUAAAGACCGAUACCAGUAUCGAUAGAUACCCUUGGCAGCGGAUUUCCGCAACGACUAGGAAACUAG [Ex Theophylline A K4 13] | 404 | 423 | 399 | 466 | 270 |
| AGCAGUGAUGUUGCUCAAUUUACAGGUGAUACCAGAGGUCAGUCUCUCCCUUGGCAGCACUUCAUACGAUGAUGUUUUAUCGGCC [theeternabot_sameState_KL_Theo_A_50] | 374 | 321 | 370 | 378 | 313 |
| AGCGGCCAGUCGGCCGCCACUCCAGGCAGUGAUGUUGCUAAGUUUCUACUAGAGUGAUGUUCUAAGAGGACCGGGACUGACGUAU [Exclusion Tryptophan B Gf 8] | 178 | 225 | 199 | 216 | 145 |
| AGCUCAGAGUGACUCGAUAAGAGUCACAAACGAGGACCGGUACGGCCGCCACUCGAAAUAACGAGAGUGAUGUUCUCGCUGGGCA [FiskerMod 1 - Jieux - Same State Tryptophan A] | 829 | 463 | 1010 | 540 | 296 |
| AGCUCAGAGUGACUCGAUAAGAGUCACAAACGAGGACCGGUACGGCCGCCACUCGAAAUAAUGGGAGUGAUGUUCUCACUGAGCA [#SwitchBubble 3 #StaticStem #K4Late] | 1030 | 719 | 1190 | 796 | 384 |
| AGCUGUGGCAGAAGGAGCGACAGUUAUUCUGAUAGUACUCUGAGUGAUGUUCAGAACGACUGUCAGGUAGGUCGCUGUCACAGCU [#01 K4 Arginine B Exclusion] | 172 | 159 | 175 | 153 | 169 |
